Test results from publication PMC5689005.

How the values were obtained:
[1] = target: hLysRSΔN65 (human lysyl-tRNA synthetase, N-terminally truncated) (human, UniProt Q15046 66-597, del1-65); assay: fluorescence anisotropy
[2] = target: hLysRS (full-length human lysyl-tRNA synthetase) (human, UniProt Q15046 1-597); assay: fluorescence anisotropy
Sequence of hLysRS (full-length human lysyl-tRNA synthetase) (Q15046 whole entry): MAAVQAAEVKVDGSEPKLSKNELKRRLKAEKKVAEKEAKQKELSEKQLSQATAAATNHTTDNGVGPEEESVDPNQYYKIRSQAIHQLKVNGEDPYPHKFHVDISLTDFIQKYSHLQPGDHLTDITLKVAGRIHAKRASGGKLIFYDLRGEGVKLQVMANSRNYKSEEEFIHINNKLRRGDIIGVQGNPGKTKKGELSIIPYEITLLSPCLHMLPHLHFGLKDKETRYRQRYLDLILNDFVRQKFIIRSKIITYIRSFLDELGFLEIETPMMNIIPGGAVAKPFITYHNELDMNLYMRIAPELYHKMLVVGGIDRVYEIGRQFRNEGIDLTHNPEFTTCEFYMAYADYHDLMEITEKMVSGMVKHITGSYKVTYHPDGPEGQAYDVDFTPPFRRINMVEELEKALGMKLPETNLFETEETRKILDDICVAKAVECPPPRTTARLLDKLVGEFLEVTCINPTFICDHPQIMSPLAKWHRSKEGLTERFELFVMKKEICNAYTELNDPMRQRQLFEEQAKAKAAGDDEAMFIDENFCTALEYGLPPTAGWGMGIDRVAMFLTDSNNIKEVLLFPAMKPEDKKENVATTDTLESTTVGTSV

Sequence of hLysRSΔN65 (human lysyl-tRNA synthetase, N-terminally truncated) (Q15046 66-597, stated change not applied): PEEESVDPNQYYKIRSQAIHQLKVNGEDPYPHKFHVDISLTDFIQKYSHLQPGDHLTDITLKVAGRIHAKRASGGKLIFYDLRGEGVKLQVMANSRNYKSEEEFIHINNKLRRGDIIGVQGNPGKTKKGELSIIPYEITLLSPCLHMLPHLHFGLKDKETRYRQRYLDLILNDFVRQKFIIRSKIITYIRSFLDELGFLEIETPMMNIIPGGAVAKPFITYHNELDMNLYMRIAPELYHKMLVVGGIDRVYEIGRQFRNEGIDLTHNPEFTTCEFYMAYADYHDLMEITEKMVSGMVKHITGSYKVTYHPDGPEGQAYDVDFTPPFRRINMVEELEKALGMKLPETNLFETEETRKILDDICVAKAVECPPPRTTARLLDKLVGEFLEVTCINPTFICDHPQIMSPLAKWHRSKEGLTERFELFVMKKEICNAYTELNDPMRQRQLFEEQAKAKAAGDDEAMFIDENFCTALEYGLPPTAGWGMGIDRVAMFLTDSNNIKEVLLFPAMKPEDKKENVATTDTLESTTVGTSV

B1: HP2 (structured_RNA)
RNA: GGGCUUUAAAGUGAAAGCCC
- binding result [1]: no binding

B2: HP1 (A-rich stem-loop) (structured_RNA)
RNA: GGCGACGGUGUAAAAAUCUCGCC
- binding result [1]: no binding
- binding result [2]: no binding
